Measured values taken from patent publication US20150210766A1 (SAMSUNG ELECTRONICS, published 2015).

Assays:
Her3-Fc (R&D Systems) = Her3-Fc (R&D Systems) (UniProt P21860); test: SPR, Biacore T100; bispecific antibody captured (about 90 to 120 RU) by human Fab binder on a CM5 chip, Her3-Fc injected at various concentrations
[1] = target: T1, human c-Met/Fc fusion protein (R&D Systems) (human, UniProt P08581 25-932); test: ELISA, human c-Met/Fc fusion protein coated on the plate, hybridoma culture added
T1 construct: Bought reagent; also called human c-Met/Fc protein; not shown: Fc part of the bought fusion protein, not described
T1 sequence (P08581 25-932 limits assumed): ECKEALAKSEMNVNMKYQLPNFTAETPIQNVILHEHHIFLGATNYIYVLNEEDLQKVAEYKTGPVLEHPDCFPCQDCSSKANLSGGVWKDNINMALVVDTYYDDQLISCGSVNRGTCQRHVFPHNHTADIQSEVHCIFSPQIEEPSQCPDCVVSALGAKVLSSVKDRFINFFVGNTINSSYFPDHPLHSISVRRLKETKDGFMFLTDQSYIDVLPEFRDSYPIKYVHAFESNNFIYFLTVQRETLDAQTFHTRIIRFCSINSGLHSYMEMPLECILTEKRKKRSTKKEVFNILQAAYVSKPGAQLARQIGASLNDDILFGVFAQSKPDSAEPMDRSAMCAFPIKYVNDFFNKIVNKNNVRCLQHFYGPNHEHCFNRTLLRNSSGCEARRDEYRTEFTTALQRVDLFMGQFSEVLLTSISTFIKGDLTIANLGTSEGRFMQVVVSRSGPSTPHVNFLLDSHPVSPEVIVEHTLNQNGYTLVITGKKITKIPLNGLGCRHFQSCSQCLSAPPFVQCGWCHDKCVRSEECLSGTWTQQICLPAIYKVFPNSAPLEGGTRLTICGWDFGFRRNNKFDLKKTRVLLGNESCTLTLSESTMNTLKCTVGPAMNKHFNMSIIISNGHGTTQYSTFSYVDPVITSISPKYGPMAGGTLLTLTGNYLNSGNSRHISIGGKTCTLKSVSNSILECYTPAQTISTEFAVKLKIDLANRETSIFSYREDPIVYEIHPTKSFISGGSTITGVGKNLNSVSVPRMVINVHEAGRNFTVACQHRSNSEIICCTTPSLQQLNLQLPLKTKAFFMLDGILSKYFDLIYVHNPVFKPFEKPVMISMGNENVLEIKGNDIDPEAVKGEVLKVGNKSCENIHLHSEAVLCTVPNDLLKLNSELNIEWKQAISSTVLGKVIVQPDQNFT
Description: Human c-Met/Fc fusion protein was seeded in an amount of […] (2 μg/mL)/well to microtiter plates and allowed to adhere to the surface of each well. The […] that remained unbound was removed by washing.
The hybridoma cell culture obtained in Reference Example 1.1.2 was added in an amount of […] to each well of the plates and incubated for 1 hour. The cells remaining unreacted were washed out with a sufficient amount of Tris-buffered saline and Tween 20 (TBST). Goat anti-mouse IgG-horseradish peroxidase (HRP) was added to the plates and incubated for 1 hour at room temperature. The plates were washed with a sufficient amount of TBST, followed by reacting the peroxidase with a substrate (OPD). Absorbance at 450 nm was measured on an ELISA reader.

Chain of Her3-Fc (R&D Systems) (P21860 20-643 limits assumed): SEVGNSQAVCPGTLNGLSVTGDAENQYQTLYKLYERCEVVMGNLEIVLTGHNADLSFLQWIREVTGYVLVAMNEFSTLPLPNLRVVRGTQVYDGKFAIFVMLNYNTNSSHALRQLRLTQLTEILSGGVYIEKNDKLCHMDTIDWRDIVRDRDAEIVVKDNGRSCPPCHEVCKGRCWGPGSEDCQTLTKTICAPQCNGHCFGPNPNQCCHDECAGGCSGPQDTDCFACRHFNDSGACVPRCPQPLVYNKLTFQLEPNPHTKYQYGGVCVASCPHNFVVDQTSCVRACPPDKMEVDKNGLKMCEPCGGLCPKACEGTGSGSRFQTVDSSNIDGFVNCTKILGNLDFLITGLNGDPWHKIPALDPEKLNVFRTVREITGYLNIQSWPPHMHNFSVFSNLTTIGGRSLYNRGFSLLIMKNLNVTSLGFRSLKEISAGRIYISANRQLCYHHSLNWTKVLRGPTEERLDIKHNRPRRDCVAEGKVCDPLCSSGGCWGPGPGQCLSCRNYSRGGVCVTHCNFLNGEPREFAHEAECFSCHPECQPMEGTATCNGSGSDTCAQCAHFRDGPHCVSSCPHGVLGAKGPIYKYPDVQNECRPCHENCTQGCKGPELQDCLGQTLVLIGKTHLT

Row | Binder | Kd (Her3-Fc (R&D Systems)) [pM] | binding result [1]
1 | MH3-05, anti-c-Met/anti-Her3 bispecific antibody in which the modified anti-Her3 scFv is fused at the c-terminal of L3-1Y-IgG2 (bispecific antibody, part only; not given: nothing needed for Her3 binding, not shown: another chain or arm of the molecule; small tags and cut ends, In the real molecule the scFv-VL chain is joined covalently to the C-terminus of the heavy chain's VH (SEQ 115) through the undisclosed linker. It is written as a separate chain only because that linker has no letters.) heavy: EVQLVESGGGLVQPGGSLRLSCAASGFTFTDYYMSWVRQAPGKGLEWLGFIRNKANGYTTEYSASVKGRFTISRDNSKNTLYLQMNSLRAEDTAVYYCARDNWFAYWGQGTLVTVSSASTKGPSVFPLAPCSRSTSESTAALGCLVKDYFPEPVTVSWNSGALTSGVHTFPAVLQSSGLYSLSSVVTVPSSNFGTQTYTCNVDHKPSNTKVDKTVERKCCVECPPCPAPPVAGPSVFLFPPKPKDTLMISRTPEVTCVVVDVSHEDPEVQFNWYVDGVEVHNAKTKPREEQFNSTFRVVSVLTVVHQDWLNGKEYKCKVSNKGLPAPIEKTISKTKGQPREPQVYTLPPSREEMTKNQVSLTCLVKGFYPSDIAVEWESNGQPENNYKTTPPMLDSDGSFFLYSKLTVDKSRWQQGNVFSCSVMHEALHNHYTQKSLSLSPGKGGGGSGGGGSQVQLQESGGGLVKPGGSLRLSCAASGFTFSSYSMNWVRQAPGKGLEWVSSISSSSSYIYYADSVKGRFTISRDNAKNSLYLQMNSLRAEDTAVYYCAREDLTPFDYWGQGTLVTVSS VL: LPVLTQPPSVSVAPGQTARITCGGDNIGSKSVHWYQQKPGQAPVLVVYDDSDRPSGIPERISGSNSGNTATLTISRVEAGDEADFYCQVWDNSVDLLFGGGTKLTVL light: DIQMTQSPSSLSASVGDRVTITCKSSQSLLASGNQNNYLAWYQQKPGKAPKMLIIWASTRVSGVPSRFSGSGSGTDFTLTISSLQPEDFATYYCQQSYSRPYTFGQGTKVEIKRTVAAPSVFIFPPSDEQLKSGTASVVCLLNNFYPREAKVQWKVDNALQSGNSQESVTEQDSKDSTYSLSSTLTLSKADYEKHKVYACEVTHQGLSSPVTKSFNRGEC | 550 | 
2 | AbF46, mouse monoclonal antibody to c-Met (hybridoma KCLRF-BP-00220) (antibody, V domains shown, Tested as hybridoma culture in the screening ELISA; the single clone selected produces AbF46; also called mouse antibody AbF46) VH: EVKLVESGGGLVQPGGSLRLSCATSGFTFTDYYMSWVRQPPGKALEWLGFIRNKANGYTTEYSASVKGRFTISRDNSQSILYLQMDTLRAEDSATYYCARDNWFAYWGQGTLVTVSA VL: DILMTQSPSSLTVSAGEKVTMSCKSSQSLLASGNQNNYLAWHQQKPGRSPKMLIIWASTRVSGVPDRFIGSGSGTDFTLTINSVQAEDLAVYYCQQSYSAPLTFGAGTKLELK |  | binds
